Source: patent publication US20240294604A1

Columns and labels:
Conditions in all cases: remark: other sources report otherwise
[1] = molecular target: BAFF; experiment: cell binding titration by flow cytometry; soluble BAFF varied to 10 nM on cells displaying the BCMA clone; Kd and BP printed as N.D
[2] = molecular target: T1, A Proliferation Inducing Ligand (APRIL) (human), O75888; experiment: flow cytometry titration of soluble APRIL on yeast displaying BCMA; one site specific binding fit; A.U. from the axis 'Cell binding (A.U.)'
T1 chain: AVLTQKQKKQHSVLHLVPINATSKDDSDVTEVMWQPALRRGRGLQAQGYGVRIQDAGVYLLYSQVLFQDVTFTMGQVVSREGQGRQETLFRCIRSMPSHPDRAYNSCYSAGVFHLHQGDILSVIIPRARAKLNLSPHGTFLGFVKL

[3] = molecular target: T1, A Proliferation Inducing Ligand (APRIL) …; experiment: binding assay of FIG. 1 (flow cytometry titration, one-site specific binding fit; format not stated); FIG. 1 legend, unit printed pM
[4] = molecular target: T1, A Proliferation Inducing Ligand (APRIL) …; experiment: cell binding titration by flow cytometry; soluble APRIL varied to 10 nM on cells displaying the BCMA clone; BP is not defined in the filing
[5] = molecular target: T1, A Proliferation Inducing Ligand (APRIL) …; experiment: flow cytometry titration of soluble APRIL (about 0.0005 to 10 nM) on yeast displaying BCMA; one site specific binding fit, nM is the unit of the concentration axis
[6] = molecular target: T1, A Proliferation Inducing Ligand (APRIL) …; experiment: binding assay of FIG. 1 (flow cytometry titration, one-site specific binding fit; format not stated); Example 4 results, unit printed µM
[7] = molecular target: T1, A Proliferation Inducing Ligand (APRIL) …; experiment: cell binding titration by flow cytometry; soluble APRIL varied to 10 nM on cells displaying the BCMA clone

Sequence of BAFF (chain, as listed by the source): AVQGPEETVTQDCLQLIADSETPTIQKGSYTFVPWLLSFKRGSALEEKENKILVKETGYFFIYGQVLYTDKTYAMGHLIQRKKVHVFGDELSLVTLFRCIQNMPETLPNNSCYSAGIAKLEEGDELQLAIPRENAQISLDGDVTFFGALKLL

B1: wild type human BCMA extracellular domain (sBCMA WT ECD), Q02223 1-54 (receptor)
chain: MLQMAGQCSQNEYFDSLLHACIPCQLRCSSNTPPLTCQRYCNASVTNSVKGTNA
B1 gave a Bmax [1] of 78.3 A.U, a Bmax [2] of 9930 A.U and a Kd [3] of 32 pM. The BP [4] was 263, the Kd [5] was 32.3 pM and the Kd [6] was 32 pM. For the same binder, the Bmax [7] was 6560 A.U and the Kd [7] was 25 pM.
